The record followed here is patent US20200002434A1 (BIOSION, published 2020).

B1: 5F12.v2 humanized antibody (antibody, V domains shown)
VH: EVQLVQSGAEVKKPGSSVKVSCKASGYTFTSYTMHWIRQAPGQGLEWIGYINPSSSYTNYNQNFKDRATLTADKSTSTAYMELSSLRSEDTAVYYCARASSYSLDYWGQGTLVTVSS
VL: DIQMTQSPSSLSASVGDRVTITCKASQDINKYIAWYQQKPGKGPKLLIHSTSTLYPGIPSRFSGSGSGKDYTFTISSLQPEDIATYYCLQYDNLLWTFGQGTKVEIK
notes: VH.v1/VL.1, back mutations 0/H38Q
B2: 5F12.v10 humanized antibody (antibody, V domains shown)
VH: EVQLVQSGAEVKKPGSSVKVSCKASGYTFTSYTMHWIRQAPGQGLEWIGYINPSSSYTNYNQNFKDRVTLTADKSTSTAYMELSSLRSEDTAVYYCARASSYSLDYWGQGTLVTVSS
VL: DIQMTQSPSSLSASVGDRVTITCKASQDINKYIAWYQHKPGKGPKLLIHSTSTLYPGIPSRFSGSGSGKDYTFTISSLQPEDIATYYCLQYDNLLWTFGQGTKVEIK
notes: VH.3/VL.v1, back mutations A67V/0
B3: 5F12.v9 humanized antibody (antibody, V domains shown)
VH: EVQLVQSGAEVKKPGSSVKVSCKASGYTFTSYTMHWIRQAPGQGLEWMGYINPSSSYTNYNQNFKDRATLTADKSTSTAYMELSSLRSEDTAVYYCARASSYSLDYWGQGTLVTVSS
VL: DIQMTQSPSSLSASVGDRVTITCKASQDINKYIAWYQHKPGKGPKLLIHSTSTLYPGIPSRFSGSGSGKDYTFTISSLQPEDIATYYCLQYDNLLWTFGQGTKVEIK
notes: VH.2/VL.v1, back mutations I48M/0
B4: 5F12.v6 humanized antibody (antibody, V domains shown)
VH: EVQLVQSGAEVKKPGSSVKVSCKASGYTFTSYTMHWIRQAPGQGLEWIGYINPSSSYTNYNQNFKDRATLTADKSTSTAYMELSSLRSEDTAVYYCARASSYSLDYWGQGTLVTVSS
VL: DIQMTQSPSSLSASVGDRVTITCKASQDINKYIAWYQHKPGKGPKLLIHSTSTLYPGIPSRFSGSGSGTDYTFTISSLQPEDIATYYCLQYDNLLWTFGQGTKVEIK
notes: VH.v1/VL.5, back mutations 0/K69T
B5: 5F12.v8 humanized antibody (antibody, V domains shown)
VH: EVQLVQSGAEVKKPGSSVKVSCKASGYTFTSYTMHWVRQAPGQGLEWIGYINPSSSYTNYNQNFKDRATLTADKSTSTAYMELSSLRSEDTAVYYCARASSYSLDYWGQGTLVTVSS
VL: DIQMTQSPSSLSASVGDRVTITCKASQDINKYIAWYQHKPGKGPKLLIHSTSTLYPGIPSRFSGSGSGKDYTFTISSLQPEDIATYYCLQYDNLLWTFGQGTKVEIK
notes: VH.1/VL.v1, back mutations I37V/0
B6: 5F12.v7 humanized antibody (antibody, V domains shown)
VH: EVQLVQSGAEVKKPGSSVKVSCKASGYTFTSYTMHWIRQAPGQGLEWIGYINPSSSYTNYNQNFKDRATLTADKSTSTAYMELSSLRSEDTAVYYCARASSYSLDYWGQGTLVTVSS
VL: DIQMTQSPSSLSASVGDRVTITCKASQDINKYIAWYQHKPGKGPKLLIHSTSTLYPGIPSRFSGSGSGKDFTFTISSLQPEDIATYYCLQYDNLLWTFGQGTKVEIK
notes: VH.v1/VL.6, back mutations 0/Y71F
B7: 5F12.v11 humanized antibody (antibody, V domains shown)
VH: EVQLVQSGAEVKKPGSSVKVSCKASGYTFTSYTMHWIRQAPGQGLEWIGYINPSSSYTNYNQNFKDRATITADKSTSTAYMELSSLRSEDTAVYYCARASSYSLDYWGQGTLVTVSS
VL: DIQMTQSPSSLSASVGDRVTITCKASQDINKYIAWYQHKPGKGPKLLIHSTSTLYPGIPSRFSGSGSGKDYTFTISSLQPEDIATYYCLQYDNLLWTFGQGTKVEIK
notes: VH.4/VL.v1, back mutations L69I/0
B8: 5F12.v3 humanized antibody (antibody, V domains shown)
VH: EVQLVQSGAEVKKPGSSVKVSCKASGYTFTSYTMHWIRQAPGQGLEWIGYINPSSSYTNYNQNFKDRATLTADKSTSTAYMELSSLRSEDTAVYYCARASSYSLDYWGQGTLVTVSS
VL: DIQMTQSPSSLSASVGDRVTITCKASQDINKYIAWYQHKPGKAPKLLIHSTSTLYPGIPSRFSGSGSGKDYTFTISSLQPEDIATYYCLQYDNLLWTFGQGTKVEIK
notes: VH.v1/VL.2, back mutations 0/G43A
B9: 5F12.v5 humanized antibody (antibody, V domains shown)
VH: EVQLVQSGAEVKKPGSSVKVSCKASGYTFTSYTMHWIRQAPGQGLEWIGYINPSSSYTNYNQNFKDRATLTADKSTSTAYMELSSLRSEDTAVYYCARASSYSLDYWGQGTLVTVSS
VL: DIQMTQSPSSLSASVGDRVTITCKASQDINKYIAWYQHKPGKGPKLLIHSTSTLYPGVPSRFSGSGSGKDYTFTISSLQPEDIATYYCLQYDNLLWTFGQGTKVEIK
notes: VH.v1/VL.4, back mutations 0/I58V
B10: 5G9.v1 humanized antibody (antibody, V domains shown)
VH: EVQLVQSGAEVKKPGSSVKVSCKTSGYTFSSYTIHWVRQAPGQGLEWIGYINPSSDYTAYNQKFRDRATLTADQSTNTAYMELSSLRSEDTAVYYCARASAFSLDFWGQGTLVTVSS
VL: DIQMTQSPSSLSASVGDRVTITCKASHDIDRYIAWYQHKPGKGPKLLIHYTSTLQPGIPSRFSGSGSGRDYTLTISSLQPEDVATYYCLNYDNLLWTFGQGTKVEIK
notes: VH.v1/VL.v1, back mutations 0/0
B11: 5G9.v8 humanized antibody (antibody, V domains shown)
VH: EVQLVQSGAEVKKPGSSVKVSCKTSGYTFSSYTIHWVRQAPGQGLEWIGYINPSSDYTAYNQKFRDRVTLTADQSTNTAYMELSSLRSEDTAVYYCARASAFSLDFWGQGTLVTVSS
VL: DIQMTQSPSSLSASVGDRVTITCKASHDIDRYIAWYQHKPGKGPKLLIHYTSTLQPGIPSRFSGSGSGRDYTLTISSLQPEDVATYYCLNYDNLLWTFGQGTKVEIK
notes: VH.1/VL.v1, back mutations A67V/0
B12: 5G9.v6 humanized antibody (antibody, V domains shown)
VH: EVQLVQSGAEVKKPGSSVKVSCKTSGYTFSSYTIHWVRQAPGQGLEWIGYINPSSDYTAYNQKFRDRATLTADQSTNTAYMELSSLRSEDTAVYYCARASAFSLDFWGQGTLVTVSS
VL: DIQMTQSPSSLSASVGDRVTITCKASHDIDRYIAWYQHKPGKGPKLLIHYTSTLQPGIPSRFSGSGSGTDYTLTISSLQPEDVATYYCLNYDNLLWTFGQGTKVEIK
notes: VH.v1/VL.5, back mutations 0/R69T
B13: 5G9.v9 humanized antibody (antibody, V domains shown)
VH: EVQLVQSGAEVKKPGSSVKVSCKTSGYTFSSYTIHWVRQAPGQGLEWIGYINPSSDYTAYNQKFRDRATITADQSTNTAYMELSSLRSEDTAVYYCARASAFSLDFWGQGTLVTVSS
VL: DIQMTQSPSSLSASVGDRVTITCKASHDIDRYIAWYQHKPGKGPKLLIHYTSTLQPGIPSRFSGSGSGRDYTLTISSLQPEDVATYYCLNYDNLLWTFGQGTKVEIK
notes: VH.2/VL.v1, back mutations L69I/0
B14: 5G9.v3 humanized antibody (antibody, V domains shown)
VH: EVQLVQSGAEVKKPGSSVKVSCKTSGYTFSSYTIHWVRQAPGQGLEWIGYINPSSDYTAYNQKFRDRATLTADQSTNTAYMELSSLRSEDTAVYYCARASAFSLDFWGQGTLVTVSS
VL: DIQMTQSPSSLSASVGDRVTITCKASHDIDRYIAWYQHKPGKVPKLLIHYTSTLQPGIPSRFSGSGSGRDYTLTISSLQPEDVATYYCLNYDNLLWTFGQGTKVEIK
notes: VH.v1/VL.2, back mutations 0/G43V
B15: 5G9.v7 humanized antibody (antibody, V domains shown)
VH: EVQLVQSGAEVKKPGSSVKVSCKTSGYTFSSYTIHWVRQAPGQGLEWIGYINPSSDYTAYNQKFRDRATLTADQSTNTAYMELSSLRSEDTAVYYCARASAFSLDFWGQGTLVTVSS
VL: DIQMTQSPSSLSASVGDRVTITCKASHDIDRYIAWYQHKPGKGPKLLIHYTSTLQPGIPSRFSGSGSGRDFTLTISSLQPEDVATYYCLNYDNLLWTFGQGTKVEIK
notes: as for B6
B16: 5G9.v4 humanized antibody (antibody, V domains shown)
VH: EVQLVQSGAEVKKPGSSVKVSCKTSGYTFSSYTIHWVRQAPGQGLEWIGYINPSSDYTAYNQKFRDRATLTADQSTNTAYMELSSLRSEDTAVYYCARASAFSLDFWGQGTLVTVSS
VL: DIQMTQSPSSLSASVGDRVTITCKASHDIDRYIAWYQHKPGKGPKLLIYYTSTLQPGIPSRFSGSGSGRDYTLTISSLQPEDVATYYCLNYDNLLWTFGQGTKVEIK
notes: VH.v1/VL.3, back mutations 0/H49Y
B17: 5G9.v10 humanized antibody (antibody, V domains shown)
VH: EVQLVQSGAEVKKPGSSVKVSCKTSGYTFSSYTIHWVRQAPGQGLEWIGYINPSSDYTAYNQKFRDRATLTADKSTNTAYMELSSLRSEDTAVYYCARASAFSLDFWGQGTLVTVSS
VL: DIQMTQSPSSLSASVGDRVTITCKASHDIDRYIAWYQHKPGKGPKLLIHYTSTLQPGIPSRFSGSGSGRDYTLTISSLQPEDVATYYCLNYDNLLWTFGQGTKVEIK
notes: VH.3/VL.v1, back mutations Q73K/0
B18: 5G9.v12 humanized antibody (antibody, V domains shown)
VH: EVQLVQSGAEVKKPGSSVKVSCKTSGYTFSSYTIHWVRQAPGQGLEWMGYINPSSDYTAYNQKFRDRATLTADQSTNTAYMELSSLRSEDTAVYYCARASAFSLDFWGQGTLVTVSS
VL: DIQMTQSPSSLSASVGDRVTITCKASHDIDRYIAWYQHKPGKGPKLLIHYTSTLQPGIPSRFSGSGSGRDYTLTISSLQPEDVATYYCLNYDNLLWTFGQGTKVEIK
notes: VH.5/VL.v1, back mutations I48M/0
B19: 5G9.v5 humanized antibody (antibody, V domains shown)
VH: EVQLVQSGAEVKKPGSSVKVSCKTSGYTFSSYTIHWVRQAPGQGLEWIGYINPSSDYTAYNQKFRDRATLTADQSTNTAYMELSSLRSEDTAVYYCARASAFSLDFWGQGTLVTVSS
VL: DIQMTQSPSSLSASVGDRVTITCKASHDIDRYIAWYQHKPGKGPKLLIHYTSTLQPGVPSRFSGSGSGRDYTLTISSLQPEDVATYYCLNYDNLLWTFGQGTKVEIK
notes: as for B9
B20: 5G9.v11 humanized antibody (antibody, V domains shown)
VH: EVQLVQSGAEVKKPGSSVKVSCKTSGYTFSSYTIHWVRQAPGQGLEWIGYINPSSDYTAYNQKFRDRATLTADQSTSTAYMELSSLRSEDTAVYYCARASAFSLDFWGQGTLVTVSS
VL: DIQMTQSPSSLSASVGDRVTITCKASHDIDRYIAWYQHKPGKGPKLLIHYTSTLQPGIPSRFSGSGSGRDYTLTISSLQPEDVATYYCLNYDNLLWTFGQGTKVEIK
notes: VH.4/VL.v1, back mutations N76S/0
B21: 5G9.v2 humanized antibody (antibody, V domains shown)
VH: EVQLVQSGAEVKKPGSSVKVSCKTSGYTFSSYTIHWVRQAPGQGLEWIGYINPSSDYTAYNQKFRDRATLTADQSTNTAYMELSSLRSEDTAVYYCARASAFSLDFWGQGTLVTVSS
VL: DIQMTQSPSSLSASVGDRVTITCKASHDIDRYIAWYQQKPGKGPKLLIHYTSTLQPGIPSRFSGSGSGRDYTLTISSLQPEDVATYYCLNYDNLLWTFGQGTKVEIK
notes: as for B1

The target of one test is T1, recombinant human ErbB2 extracellular domain (ErbB2-ECD) (human, UniProt P04626 23-652).
T1 construct: extracellular domain; Coated on plates or used biotin-labeled in solution (capture ELISA); also called Human ErbB2-ECD; rhErbB2
Description: capture ELISA, recombinant ErbB2-ECD. (In general: In an ELISA, binding on a coated surface is turned into a signal by an enzyme label.)
By EC50 is commonly meant the concentration giving half of the maximal effect. As for B1, the EC50 stood at 34 pM.

Consider B2, for which the EC50 came out at 32 pM.

In the case of B3, the EC50 came out at 23 pM.

Take B4: the EC50 is 32 pM.

With B5, the EC50 came out at 18 pM.

As to B6, the EC50 was 152 pM.

Turning to B7, the EC50 came out at 28 pM.

B8: the EC50 amounted to 26 pM.

As for B9, the half-maximal effective concentration (EC50) came out at 28 pM.

For a further test, the target named is T1, recombinant human ErbB2 extracellular …. In words: capture ELISA, recombinant ErbB2-ECD. This is another data set of the same source.
Turning to B10, the EC50 amounted to 31 pM.

Consider B11, for which the EC50 came out at 165 pM.

On to B12, for which the half-maximal effective concentration (EC50) is 44 pM.

In the case of B13, the EC50 was 54 pM.

Regarding B14, the EC50 is 23 pM.

With B15, the EC50 was 53 pM.

B16: the EC50 was 72 pM.

For B17, the half-maximal effective concentration (EC50) is 29 pM.

As for B18, the EC50 is 29 pM.

B19: the EC50 amounted to 13 pM.

On to B20, for which the 50% effective concentration (EC50) is 81 pM.

B21: the EC50 was 62 pM.
